This note sets out measurements from publication PMC4017094, “Mouse SLX4 Is a Tumor Suppressor that Stimulates the Activity of the Nuclease XPF-ERCC1 in DNA Crosslink Repair” (Molecular Cell, 2014).

A word on the stoichiometry N: it is the number of molecules, sites or subunits per partner or assembly.

The target of series [1] is T1, XPF-ERCC1 nuclease (XE), recombinant (UniProt Q9QZD4 1-917; P07903 1-298).
T1 sequence (looked up) 1: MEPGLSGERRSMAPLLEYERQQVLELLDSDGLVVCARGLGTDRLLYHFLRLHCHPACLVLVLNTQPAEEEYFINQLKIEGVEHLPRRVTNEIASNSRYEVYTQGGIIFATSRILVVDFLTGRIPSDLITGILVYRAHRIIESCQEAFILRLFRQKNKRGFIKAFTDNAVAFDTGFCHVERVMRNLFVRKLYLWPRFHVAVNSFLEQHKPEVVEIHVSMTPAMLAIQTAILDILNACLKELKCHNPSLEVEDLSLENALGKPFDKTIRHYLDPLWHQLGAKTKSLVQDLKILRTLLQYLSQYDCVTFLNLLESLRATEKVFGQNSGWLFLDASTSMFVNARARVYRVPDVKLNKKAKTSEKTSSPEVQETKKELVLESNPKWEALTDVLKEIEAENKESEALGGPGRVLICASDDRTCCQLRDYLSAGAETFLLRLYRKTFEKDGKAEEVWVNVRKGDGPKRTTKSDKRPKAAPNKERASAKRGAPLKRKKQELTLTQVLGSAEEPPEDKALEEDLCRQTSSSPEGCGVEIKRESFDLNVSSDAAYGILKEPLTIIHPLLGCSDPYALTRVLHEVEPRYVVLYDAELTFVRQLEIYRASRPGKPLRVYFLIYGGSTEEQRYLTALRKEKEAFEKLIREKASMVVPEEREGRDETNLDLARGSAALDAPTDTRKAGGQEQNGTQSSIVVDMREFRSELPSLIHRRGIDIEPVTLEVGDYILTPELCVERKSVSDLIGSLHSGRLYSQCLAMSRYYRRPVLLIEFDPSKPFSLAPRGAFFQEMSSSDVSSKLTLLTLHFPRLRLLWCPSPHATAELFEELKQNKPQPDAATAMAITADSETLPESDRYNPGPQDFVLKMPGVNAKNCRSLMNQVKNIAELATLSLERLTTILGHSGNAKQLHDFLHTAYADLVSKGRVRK
T1 sequence (looked up) 2: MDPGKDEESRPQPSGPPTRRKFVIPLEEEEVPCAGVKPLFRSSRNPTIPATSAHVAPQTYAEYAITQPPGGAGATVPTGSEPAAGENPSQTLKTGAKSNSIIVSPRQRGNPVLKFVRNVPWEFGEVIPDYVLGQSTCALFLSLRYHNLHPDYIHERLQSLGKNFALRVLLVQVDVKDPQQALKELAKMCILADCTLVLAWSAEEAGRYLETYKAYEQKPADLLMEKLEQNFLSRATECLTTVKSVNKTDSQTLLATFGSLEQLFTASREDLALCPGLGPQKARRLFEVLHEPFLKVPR
In words: cell-based or functional assay.

The target in series [2] is T1, XPF-ERCC1 nuclease (XE), recombinant. The experiment in a line: SEC-MALS; light-scattering analysis of the purified SXE complex (Figure S1F). Conditions: both partners purified. In general terms: In gel filtration, larger molecules generally elute earlier.
Series [3] concerns the molecule itself. Described as above.

B1: Recombinant mini-SLX4 (1-758) (domain or fragment, mouse, UniProt Q6P1D7 1-758, looked up)
chain: MVPESAPNGNSQPLPSCFTTTGVPSPSKPRVSELVLQRMKQFKRADPERLRHASEESPQKTALGDDVPRSPPEETVGENEYKLDATDSDAAMALALQQEFRREEASSHHDSLEEKGLFFCQMCQKNLSAMNVTRREQHVNRCLDEAEKAQRPASPRIPDCPICGKPFLTTKSRISHLKQCAVRMEVGPQLLLQAVRLQTAQPEVDGSPQVPSFSNNVGGLKRKGVTTKREPRRRKVNKPEAPSEDLLVAMALSRSEVEHCPVVPPLRLENAFSEKIRLGAEKKSRKKRPPVCPPQLVTQDSETTGRQIEDRVAQLLSEEAELSCTPPLLASKISKEELEPAGWRARLPEGKRNFLWELSALTGAWAEESFYTVGLFPPIVSQCPSKEPQLPLELPKQGEPSPRRPPASQSSLPVSHSPKIRLLSSSQRERQALQDLVDLAVEGLSSSPQPGSRGVPTGLDLVPSSLPLTGFVLPCKKTLKKDDSASLSLGLLVTDFGAMVNNPHLSDVQFQLDSGEVLYAHKFVLYARCPLLIQYVSTESFSSEEDGDLTQRALLSDVSSEAAHAFLNYLYMADTDMPPSLVPDLRSLALRFGVSDLVQLCEQVPAVVDLEGEQPEETSEDCESRAETFLELLRSVWVDNEEEVETLLKPELCEEERERVNEAEMEEIYEFAATQRKLLQWGRAADPDGSTNPHGEDGAVSEPSLAGVQSNRQLENTEHMESSGLEKEEALASWEQEGHSTPLQDQCPDWAGKAEAQD
notes: mouse SLX4, residues 1-758; source: insect cells, purified (in complex with XPF-ERCC1, or alone)
Regarding B1, in series [1], the “incision rate on the interstrand crosslink (ICL) fork substrate, SXE against XE (5 nM enzyme)” value was 110 fold; the “nuclease rate on the bubble substrate, SXE against XE (5 nM enzyme)” value is 3.5 fold; the “nuclease rate on the fork substrate Y11, SXE against XE (5 nM enzyme)” value stood at 16 fold; the “nuclease rate on the long stem-loop substrate, SXE against XE (5 nM enzyme)” value is 3.7 fold. The “stoichiometry N” value in series [2] turned out to be 1.

B2: mini-SLX4-XPF-ERCC1 (SXE) complex (complex)
chain 1: MVPESAPNGNSQPLPSCFTTTGVPSPSKPRVSELVLQRMKQFKRADPERLRHASEESPQKTALGDDVPRSPPEETVGENEYKLDATDSDAAMALALQQEFRREEASSHHDSLEEKGLFFCQMCQKNLSAMNVTRREQHVNRCLDEAEKAQRPASPRIPDCPICGKPFLTTKSRISHLKQCAVRMEVGPQLLLQAVRLQTAQPEVDGSPQVPSFSNNVGGLKRKGVTTKREPRRRKVNKPEAPSEDLLVAMALSRSEVEHCPVVPPLRLENAFSEKIRLGAEKKSRKKRPPVCPPQLVTQDSETTGRQIEDRVAQLLSEEAELSCTPPLLASKISKEELEPAGWRARLPEGKRNFLWELSALTGAWAEESFYTVGLFPPIVSQCPSKEPQLPLELPKQGEPSPRRPPASQSSLPVSHSPKIRLLSSSQRERQALQDLVDLAVEGLSSSPQPGSRGVPTGLDLVPSSLPLTGFVLPCKKTLKKDDSASLSLGLLVTDFGAMVNNPHLSDVQFQLDSGEVLYAHKFVLYARCPLLIQYVSTESFSSEEDGDLTQRALLSDVSSEAAHAFLNYLYMADTDMPPSLVPDLRSLALRFGVSDLVQLCEQVPAVVDLEGEQPEETSEDCESRAETFLELLRSVWVDNEEEVETLLKPELCEEERERVNEAEMEEIYEFAATQRKLLQWGRAADPDGSTNPHGEDGAVSEPSLAGVQSNRQLENTEHMESSGLEKEEALASWEQEGHSTPLQDQCPDWAGKAEAQD
chain 2: MEPGLSGERRSMAPLLEYERQQVLELLDSDGLVVCARGLGTDRLLYHFLRLHCHPACLVLVLNTQPAEEEYFINQLKIEGVEHLPRRVTNEIASNSRYEVYTQGGIIFATSRILVVDFLTGRIPSDLITGILVYRAHRIIESCQEAFILRLFRQKNKRGFIKAFTDNAVAFDTGFCHVERVMRNLFVRKLYLWPRFHVAVNSFLEQHKPEVVEIHVSMTPAMLAIQTAILDILNACLKELKCHNPSLEVEDLSLENALGKPFDKTIRHYLDPLWHQLGAKTKSLVQDLKILRTLLQYLSQYDCVTFLNLLESLRATEKVFGQNSGWLFLDASTSMFVNARARVYRVPDVKLNKKAKTSEKTSSPEVQETKKELVLESNPKWEALTDVLKEIEAENKESEALGGPGRVLICASDDRTCCQLRDYLSAGAETFLLRLYRKTFEKDGKAEEVWVNVRKGDGPKRTTKSDKRPKAAPNKERASAKRGAPLKRKKQELTLTQVLGSAEEPPEDKALEEDLCRQTSSSPEGCGVEIKRESFDLNVSSDAAYGILKEPLTIIHPLLGCSDPYALTRVLHEVEPRYVVLYDAELTFVRQLEIYRASRPGKPLRVYFLIYGGSTEEQRYLTALRKEKEAFEKLIREKASMVVPEEREGRDETNLDLARGSAALDAPTDTRKAGGQEQNGTQSSIVVDMREFRSELPSLIHRRGIDIEPVTLEVGDYILTPELCVERKSVSDLIGSLHSGRLYSQCLAMSRYYRRPVLLIEFDPSKPFSLAPRGAFFQEMSSSDVSSKLTLLTLHFPRLRLLWCPSPHATAELFEELKQNKPQPDAATAMAITADSETLPESDRYNPGPQDFVLKMPGVNAKNCRSLMNQVKNIAELATLSLERLTTILGHSGNAKQLHDFLHTAYADLVSKGRVRK
chain 3: MDPGKDEESRPQPSGPPTRRKFVIPLEEEEVPCAGVKPLFRSSRNPTIPATSAHVAPQTYAEYAITQPPGGAGATVPTGSEPAAGENPSQTLKTGAKSNSIIVSPRQRGNPVLKFVRNVPWEFGEVIPDYVLGQSTCALFLSLRYHNLHPDYIHERLQSLGKNFALRVLLVQVDVKDPQQALKELAKMCILADCTLVLAWSAEEAGRYLETYKAYEQKPADLLMEKLEQNFLSRATECLTTVKSVNKTDSQTLLATFGSLEQLFTASREDLALCPGLGPQKARRLFEVLHEPFLKVPR
notes: mouse SLX4, residues 1-758; XPF, wild type; ERCC1; 430 kDa by light scattering; also called WT SXE; source: insect cells, purified; copies: 2 + 2 + 2
B2: the “stoichiometry N” value in series [3] is 2.
